Measurements published in patent US20230256076A1 (SICHUAN CLOVER BIOPHARMACEUTICALS, published 2023).

Molecular target: T1, exemplary recombinant polypeptide trimer: RSV F protein peptide (residues 1 to 520, RSV A2 strain) fused to … (respiratory syncytial virus A2 strain; …, UniProt P02452 1156-1464)
T1 construct: range 1-520;domain: C-propeptide of α1 collagen; Furin processing (F2/F1, loss of pep27) is not described for the tested protein; also called RSV F-Trimer; exemplary fusion peptide comprising an RSV F protein peptide
Experiment: BLI (ForteBio Octet QKe); palivizumab 5 µg/mL on Protein A sensors, 2-fold dilutions of fusion peptide from 20 µg/mL, 1:1 model

T1 sequence (P02452 1156-1464): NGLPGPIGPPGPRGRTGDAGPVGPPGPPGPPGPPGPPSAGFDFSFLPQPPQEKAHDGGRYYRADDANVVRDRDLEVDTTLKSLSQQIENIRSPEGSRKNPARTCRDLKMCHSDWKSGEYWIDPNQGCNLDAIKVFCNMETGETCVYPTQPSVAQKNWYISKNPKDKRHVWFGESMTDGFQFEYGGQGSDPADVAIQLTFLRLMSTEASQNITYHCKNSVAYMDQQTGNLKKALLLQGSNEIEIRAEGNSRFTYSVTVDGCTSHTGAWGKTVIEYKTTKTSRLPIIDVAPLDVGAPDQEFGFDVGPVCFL

B1: palivizumab (antibody, V domains shown)
VH: QVTLRESGPALVKPTQTLTLTCTFSGFSLSTSGMSVGWIRQPPGKALEWLADIWWDDKKDYNPSLKSRLTISKDTSKNQVVLKVTNMDPADTATYYCARSMITNWYFDVWGAGTTVTVSS
VL: DIQMTQSPSTLSASVGDRVTITCKCQLSVGYMHWYQQKPGKAPKLLIYDTSKLASGVPSRFSGSGSGTEFTLTISSLQPDDFATYYCFQGSGYPFTFGGGTKLEIK
For B1, the Kd was < 1 pM.
